Test results published in article PMC12400190, “Crystal structures of 40- and 71-substitution variants of hydroxynitrile lyase from rubber tree” (Acta Crystallographica Section D: Structural Biology, 2025).

Experiments:
Conditions in all cases: 5 mM BES pH 7.2, 7-8% (v/v) acetonitrile
[1] = biological target: T1, HbHNL (Hevea brasiliensis, UniProt P52704); test: spectrophotometric ester hydrolysis at […] nm, Michaelis-Menten fit; assay type: biochemical
T1 construct: gene HNL; full length 257 aa; variant structures 8sni (HNL40), 9clr (HNL71); dimer

[2] = biological target: T2, SABP2 (Nicotiana tabacum, UniProt Q6RYA0); test: as above; assay type: biochemical
T2 construct: production of the assayed sample not described in the main text
T2 sequence (Q6RYA0 1-260): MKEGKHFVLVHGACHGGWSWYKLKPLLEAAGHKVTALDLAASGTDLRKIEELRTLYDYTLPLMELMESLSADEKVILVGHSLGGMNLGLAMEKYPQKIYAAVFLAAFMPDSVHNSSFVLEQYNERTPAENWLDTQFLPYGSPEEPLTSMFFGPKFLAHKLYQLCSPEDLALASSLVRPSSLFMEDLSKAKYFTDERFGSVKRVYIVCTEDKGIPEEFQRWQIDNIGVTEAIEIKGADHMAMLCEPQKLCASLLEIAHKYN

[3] = test system: CC(=O)Oc1ccc([N+](=O)[O-])cc1; test: purified protein

T1 sequence (P52704 whole entry): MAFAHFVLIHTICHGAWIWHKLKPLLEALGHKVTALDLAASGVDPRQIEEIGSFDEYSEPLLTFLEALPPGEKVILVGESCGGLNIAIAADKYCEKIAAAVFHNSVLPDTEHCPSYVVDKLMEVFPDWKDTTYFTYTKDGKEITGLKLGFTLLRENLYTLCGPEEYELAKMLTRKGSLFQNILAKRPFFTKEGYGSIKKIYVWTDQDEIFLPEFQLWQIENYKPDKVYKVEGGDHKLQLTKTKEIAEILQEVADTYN

| Molecule | Km [1] [mM] | Km [2] [mM] | Km [3] [mM] | kcat [3] [s⁻¹] | kcat/Km [3] [M⁻¹ s⁻¹] |
| --- | --- | --- | --- | --- | --- |
| CC(=O)Oc1ccc([N+](=O)[O-])cc1 [p-nitrophenyl acetate] | 3 ± 0.4 | 2.2 ± 0.2 | – | – | – |
| HbHNL (Hevea brasiliensis; C81L/E79H/F210I/H103V/I12A/I209G/K236M/L121Y/L146M/L148F/L152F/N104A/T11G/T151K/V106F/V118L) | – | – | 0.6 ± 0.2 | 0.00583 ± 0.000167 | 10.7 |
